This note sets out measurements from article PMC4823828, “A squalene synthase-like enzyme initiates production of tetraterpenoid hydrocarbons in Botryococcus braunii Race L” (Nature Communications, 2016).

The target of data set [1] is T1, LSS (SS from race L) (Botryococcus braunii, UniProt A0A144YEA5).
T1 construct: LSS delta399-462: C-terminal transmembrane domain deleted, N-terminal 6xHis (pET28a), E. coli BL21(DE3), Ni-NTA
Briefly: GC-MS product assay; radioactive TLC assay. Format: biochemical. The settings on record: 10 μM substrate in radioactive assay; 2 mM NADPH, 20 mM MgCl2, MOPS pH 6.8, 37 °C; product squalene.

Data set [2] has as its target T2, SlSS (Solanum lycopersicum, UniProt A0A3Q7ETS2).
T2 construct: gene SQS1; SlSS delta387-411: C-terminal transmembrane domain deleted, N-terminal 6xHis (pET28a), E. coli BL21(DE3), Ni-NTA; NM_001247787 assigned to SlSS by judgement
Nature of the data set: radioactive TLC assay. The format is biochemical. The settings on record: labelled compound (3H), 10 μM, 2 mM NADPH, 20 mM MgCl2, MOPS pH 6.8, 37 °C.

For data set [3], the target named is T3, BSS (SS from race B) (Botryococcus braunii, UniProt Q9SDW9).
T3 construct: BSS delta399-461: C-terminal transmembrane domain deleted, N-terminal 6xHis (pET28a), E. coli BL21(DE3), Ni-NTA
T3 sequence (Q9SDW9 1-398): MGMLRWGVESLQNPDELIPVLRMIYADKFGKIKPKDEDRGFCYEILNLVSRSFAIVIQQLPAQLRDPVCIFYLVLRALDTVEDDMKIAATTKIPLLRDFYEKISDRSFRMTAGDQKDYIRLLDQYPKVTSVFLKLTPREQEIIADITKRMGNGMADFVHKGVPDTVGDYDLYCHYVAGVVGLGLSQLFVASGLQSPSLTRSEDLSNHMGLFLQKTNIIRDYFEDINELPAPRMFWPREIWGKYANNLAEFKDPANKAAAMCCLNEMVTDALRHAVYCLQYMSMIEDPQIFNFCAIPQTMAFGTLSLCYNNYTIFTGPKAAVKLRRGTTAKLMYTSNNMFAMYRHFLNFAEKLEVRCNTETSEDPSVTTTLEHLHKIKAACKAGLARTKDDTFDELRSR
Briefly: radioactive TLC assay. Format: biochemical. Particulars: labelled compound (3H), 10 μM, 2 mM NADPH, 20 mM MgCl2, MOPS pH 6.8, 37 °C.

The target in data set [4] is T4, SSL-2 (Botryococcus braunii, UniProt G0Y287).
T4 construct: SSL-2 delta392-465: C-terminal transmembrane domain deleted, N-terminal 6xHis (pET28a), E. coli BL21(DE3), Ni-NTA
T4 sequence (G0Y287 1-391): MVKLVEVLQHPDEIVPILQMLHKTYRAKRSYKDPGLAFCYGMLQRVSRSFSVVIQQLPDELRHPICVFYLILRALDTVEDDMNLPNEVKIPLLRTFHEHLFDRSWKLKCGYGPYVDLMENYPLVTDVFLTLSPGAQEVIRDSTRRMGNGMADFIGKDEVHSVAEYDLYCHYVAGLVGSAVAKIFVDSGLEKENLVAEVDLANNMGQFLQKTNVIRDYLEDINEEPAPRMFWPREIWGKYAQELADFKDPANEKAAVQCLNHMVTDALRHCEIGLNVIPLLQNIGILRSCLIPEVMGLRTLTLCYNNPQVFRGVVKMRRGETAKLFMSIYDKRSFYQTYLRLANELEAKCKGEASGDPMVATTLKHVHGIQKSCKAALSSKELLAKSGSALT
Briefly: radioactive TLC assay. Format: biochemical. The settings on record: labelled compound (3H), 10 μM; 2 mM NADPH, 20 mM MgCl2, MOPS pH 6.8, 37 °C; product lycopaoctaene (minor).

Data set [5] concerns the target T5, LOS (lycopaoctaene synthase) (Botryococcus braunii, UniProt A0A142ZC57).
T5 construct: LOS delta391-444: C-terminal transmembrane domain deleted from 444-residue protein, N-terminal 6xHis (pET28a), E. coli BL21(DE3), Ni-NTA
Nature of the data set: GC-MS of lycopaoctaene product from GGPP. Format: biochemical. The settings on record: 20 nM squalestatin; GGPP substrate, NADPH, Mg2+, pH 6.8, 37 °C.

Substrate in data set [6]: C/C(=C\COP(=O)(O)OP(=O)(O)O)CCC[C@H](C)CCC[C@H](C)CCCC(C)C
Nature of the data set: radioactive steady-state assay, n-hexane extraction, TLC, scintillation counting. The format is biochemical, Botryococcus braunii. Particulars: labelled compound (3H), 2 mM NADPH, 20 mM MgCl2, MOPS pH 6.8, 37 °C, 100 nM enzyme. The text has this:
(§1) radioactive steady-state assay, n-hexane extraction, TLC, scintillation counting on LOS (lycopaoctaene synthase)

Substrate in data set [7]: CC(C)=CCC/C(C)=C/CC/C(C)=C/CO[P@@](=O)(O)OP(=O)(O)O
The data set is described as above. Format: biochemical, Botryococcus braunii. Particulars: labelled compound (3H), 2 mM NADPH, 20 mM MgCl2, MOPS pH 6.8, 37 °C, 100 nM enzyme.
Text: as §1

Substrate in data set [8]: CC(C)=CCC/C(C)=C/CC/C(C)=C/CC/C(C)=C/COP(=O)(O)OP(=O)(O)O
The description is as above. Format: biochemical, Botryococcus braunii. The settings on record: labelled compound (3H), 2 mM NADPH, 20 mM MgCl2, MOPS pH 6.8, 37 °C, 100 nM enzyme.
Text: as §1

T2 sequence (A0A3Q7ETS2 entry or part of it): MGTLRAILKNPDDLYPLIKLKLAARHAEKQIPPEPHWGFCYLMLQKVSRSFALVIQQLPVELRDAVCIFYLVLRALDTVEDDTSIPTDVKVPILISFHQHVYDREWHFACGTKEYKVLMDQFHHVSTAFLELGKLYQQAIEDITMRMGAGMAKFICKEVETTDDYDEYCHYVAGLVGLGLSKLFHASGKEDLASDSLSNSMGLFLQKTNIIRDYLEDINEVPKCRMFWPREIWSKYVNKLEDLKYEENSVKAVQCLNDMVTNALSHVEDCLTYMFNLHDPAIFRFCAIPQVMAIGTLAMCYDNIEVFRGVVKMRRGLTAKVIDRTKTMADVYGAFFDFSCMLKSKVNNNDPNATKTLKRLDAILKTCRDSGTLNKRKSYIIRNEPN
T1 sequence (A0A144YEA5 1-398): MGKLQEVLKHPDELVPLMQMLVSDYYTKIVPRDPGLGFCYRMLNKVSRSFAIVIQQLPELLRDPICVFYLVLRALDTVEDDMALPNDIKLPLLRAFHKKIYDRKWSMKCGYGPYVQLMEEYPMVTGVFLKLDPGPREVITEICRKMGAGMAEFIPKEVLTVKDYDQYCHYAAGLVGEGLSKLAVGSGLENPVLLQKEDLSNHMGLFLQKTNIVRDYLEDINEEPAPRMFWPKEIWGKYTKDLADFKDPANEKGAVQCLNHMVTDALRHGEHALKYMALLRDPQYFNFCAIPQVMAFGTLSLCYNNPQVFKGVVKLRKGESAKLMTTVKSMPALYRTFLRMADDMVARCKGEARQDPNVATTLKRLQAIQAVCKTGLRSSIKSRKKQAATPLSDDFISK

As to `CC(C)=CCC/C(C)=C/CC/C(C)=C/COP(=O)(O)OP(=O)(O)O` [FPP], in data set [1], the “GC-MS product assay; radioactive TLC assay” value is “LSS was shown to yield squalene as its sole product in an in vitro assay”. Also, the “radioactive TLC assay” value in data set [2] (product squalene) and in data set [3] (product squalene) was “the typical SS enzymes display SS activity as their main catalytic function” each time.

With `C/C(=C\COP(=O)(O)OP(=O)(O)O)CCC[C@H](C)CCC[C@H](C)CCCC(C)C` [PPP], the “radioactive TLC assay” value was “BSS and SlSS also using PPP to produce minute amounts of lycopadiene” in data set [2] (product lycopadiene (minute)); “BSS and SlSS also using PPP to produce minute amounts of lycopadiene” in data set [3] (product lycopadiene (minute)).

As to `CC(C)=CCC/C(C)=C/CC/C(C)=C/CC/C(C)=C/COP(=O)(O)OP(=O)(O)O` [GGPP], in data set [4], the “radioactive TLC assay” value is “allowing SSL-2 and SSL-1 plus SSL-2 to use GGPP to generate minor amounts of lycopaoctaene”.

Regarding `C=C(CC[C@]12O[C@H](C(=O)O)[C@@](O)(C(=O)O)[C@](C(=O)O)(O1)[C@H](OC(=O)/C=C/[C@@H](C)C[C@@H](C)CC)[C@H]2O)[C@@H](OC(C)=O)[C@H](C)Cc1ccccc1` [squalestatin], in data set [5], the “strong inhibition at 20 nM” value is reported as “LOS is strongly inhibited by squalestatin (Fig. 5c), a potent SS inhibitor”.

B1: LOS (lycopaoctaene synthase) (Botryococcus braunii) (protein)
chain: MKYTDFLAHPDEIIPTIRMMYADYRLKNMEIKDPSVRFCYNMLNRVSRSFAMVIQQLPVELRDATCVFYLILRALDTVEDDMAIPKEVKIPMLRTFHEHLSDRSWKIKCGYGPYVDLMDNYPLVTDVYLRFDEGTKAVIKDITRRMGNGMADFIDLDEVLTIPQYDLYCHYVAGLCGIGMCKLFVDSGLEKEDLVAEEDLANQMGLFLQKNNIVRDYLEDINELPAPRMFWPKEIWGNYAKQLDEFKDPKNLDKAMLCLNHMVTDALRHCEVGLRSLSLLHNPNILRAVLIPQVMGVRTLTLVYNNPEVFRGVVKMRRGETAKIFVTTTSKLSFFRTYLQFANEMEQKCLTEAKNDPMVALTLKRVQGVQAACRAAIVKAEIAEGAKGPS
notes: LOS delta391-444: C-terminal transmembrane domain deleted from 444-residue protein, N-terminal 6xHis (pET28a), E. coli BL21(DE3), Ni-NTA
Take B1: in data set [6], the Km (in general, the substrate concentration at which the rate is half of its maximum) stood at 110 ± 10 µM; the kcat (usually the maximal rate divided by the concentration of active sites) turned out to be 0.00116 s⁻¹; the specificity constant (kcat/Km) (commonly the turnover number divided by the Michaelis constant) is 10.3 M⁻¹ s⁻¹. Further, in data set [7], the Km came to 130 ± 20 µM, the kcat is 0.0205 s⁻¹ and the kcat/Km amounted to 162 M⁻¹ s⁻¹. Further, in data set [8], the Km stood at 70 ± 20 µM, the kcat stood at 0.0114 s⁻¹ and the kcat/Km stood at 165 M⁻¹ s⁻¹.
